Paper PMC8157113

Target: Hepatitis B patients' plasma-derived HBsAg particles (HBV surface antigen, subviral particle of HBV)
Test: AlphaScreen
Details: parent: est. 1.3; read off a plot

Myr47 lipopeptide (HBV pre-S1 domain, myristoylated 2–48 peptide), biotinylated Ala11–15
response: 1.4 RLU (×10^6)
